Data: the PETadex activity labels (doi:10.1111/febs.16924)

B1: unnamed (protein)
chain: MDGVLWRVRTAALMAALLALAAWALVWASPSVEAQSNPYQRGPNPTRSALTADGPFSVATYTVSRLSVSGFGGGVIYYPTGTSLTFGGIAMSPGYTADASSLAWLGRRLASHGFVVLVINTNSRFDYPDSRASQLSAALNYLRTSSPSAVRARLDANRLAVAGHSMGGGGTLRIAEQNPSLKAAVPLTPWHTDKTFNTSVPVLIVGAEADTVAPVSQHAIPFYQNLPSTTPKVYVELDNASHFAPNSNNAAISVYTISWMKLWVDNDTRYRQFLCNVNDPALSDFRTNNRHCQ
B2: unnamed (protein)
chain: MAENPYERGPAPTTSSIEASRGSFATSTVTVSRLAVSGFGGGTIYYPTSTTAGTFGAISIAPGFTALQSSIAWLGPRLASQGFVVFTIDTLTTSDQPDSRGRQLLAALDYLTQQSSVRSRIDSSRLGVVGHSMGGGGTLEAARSRPSLQAAIPLTGWNLTKTWSTVRVPTLVVGAQADTVAPVASHSIPFYNSLPSSLDKAYLELRGASHFAPNSSNTTIAKYTLSWLKRFIDNDTRYEQFLCPIPSTSLSISDYRGNCPHNG
B3: unnamed (protein)
chain: MNFPRASRLMQAAVLGGLMAVSAAATAQTNPYARGPNPTAASLEASAGPFTVRSFTVSRPSGYGAGTVYYPTNAGGTVGAIAIVPGYTARQSSIKWWGPRLASHGFVVITIDTNSTLDQPSSRSSQQMAALRQVASLNGTSSSPIYGKVDTARMGVMGWSMGGGGSLISAANNPSLKAAAPQAPWDSSTNFSSVTVPTLIFACENDSIAPVNSSALPIYDSMSRNAKQFLEINGGSHSCANSGNSNQALIGKKGVAWMKRFMDNDTRYSTFACENPNSTRVSDFRTANCS

Key:
[1] = substrate: PET; test: Proxy for plastic degradation [Released monomer concentration (HPLC/LC-MS) (TPA+MHET+BHET)] (µmol TPA-EG / mg enzyme / day); details: pH 8
[2] = substrate: PET; test: Proxy for plastic degradation [Released monomer concentration (UHPLC) (TPA+MHET+BHET, as TPA-EG units)] (µmol TPA-EG/mg enzyme/day); details: pH 8
[3] = substrate: pNP-C12; details: pH 8; 30 °C
[4] = substrate: Polyester-polyurethane (Impranil DLN); test: Proxy for plastic degradation [Proton (H+) release, phenol red pH-indicator assay]; details: 40 °C

Row | Protein | Proxy for plastic degradation [1] | Proxy for plastic degradation ([2]; 50 °C) | Km [3] [µM] | kcat [3] [s⁻¹] | kcat/Km [3] [s⁻¹ M⁻¹] | Proxy for plastic degradation [4] [µM] | Proxy for plastic degradation ([2]; 40 °C) | Proxy for plastic degradation ([1]; part of the chain shown) | Proxy for plastic degradation ([2]; 30 °C, part of the chain shown)
1 | B1 | 12.8 | 12.8 | – | – | – | – | – | – | –
2 | B2 | 0.17 | – | 730 | 8.26 | 11300 | 790 | 0.17 | – | –
3 | B3 | – | – | – | – | – | – | – | 4.33 | 4.33
